Test results as given in PMC4789106 (Biochemistry, 2015).
Like-named read-outs stand apart in the source and are kept apart here.

B1: Recombinant WT TGFBIp (natural protein, human, UniProt Q15582 24-683, looked up)
chain: GPAKSPYQLVLQHSRLRGRQHGPNVCAVQKVIGTNRKYFTNCKQWYQRKICGKSTVISYECCPGYEKVPGEKGCPAALPLSNLYETLGVVGSTTTQLYTDRTEKLRPEMEGPGSFTIFAPSNEAWASLPAEVLDSLVSNVNIELLNALRYHMVGRRVLTDELKHGMTLTSMYQNSNIQIHHYPNGIVTVNCARLLKADHHATNGVVHLIDKVISTITNNIQQIIEIEDTFETLRAAVAASGLNTMLEGNGQYTLLAPTNEAFEKIPSETLNRILGDPEALRDLLNNHILKSAMCAEAIVAGLSVETLEGTTLEVGCSGDMLTINGKAIISNKDILATNGVIHYIDELLIPDSAKTLFELAAESDVSTAIDLFRQAGLGNHLSGSERLTLLAPLNSVFKDGTPPIDAHTRNLLRNHIIKDQLASKYLYHGQTLETLGGKKLRVFVYRNSLCIENSCIAAHDKRGRYGTLFTMDRVLTPPMGTVMDVLKGDNRFSMLVAAIQSAGLTETLNREGVYTVFAPTNEAFRALPPRERSRLLGDAKELANILKYHIGDEILVSGGIGALVRLKSLQGDKLEVSLKNNVVSVNKEPVAEPDIMATNGVVHVITNVLQPPANRPQERGDELADSALEIFKQASAFSRASQRSVRLAPVYQKLLERMKH
B2: Y571-R588 peptide of TGFBIp (peptide, UniProt Q15582 571-588, looked up)
peptide: YHIGDEILVSGGIGALVR

Legend:
[1] = molecular target: B2; experiment: pull-down
[2] = molecular target: B2; experiment: pull-down
Recombinant WT TGFBIp = molecular target: B1; experiment: pull-down
[3] = molecular target: the molecule itself; experiment: centrifugation and limited trypsin proteolysis of fibrils
[4] = molecular target: the molecule itself; experiment: ThT fluorescence fibrillation assay + TEM

binding result (Recombinant WT TGFBIp) | Binder | binding result [4] | other results
– | Transforming growth factor beta-induced protein (TGFBIp) from human corneal stroma extract (natural protein, human (endogenous in corneal stroma), UniProt Q15582 24-683, looked up) GPAKSPYQLVLQHSRLRGRQHGPNVCAVQKVIGTNRKYFTNCKQWYQRKICGKSTVISYECCPGYEKVPGEKGCPAALPLSNLYETLGVVGSTTTQLYTDRTEKLRPEMEGPGSFTIFAPSNEAWASLPAEVLDSLVSNVNIELLNALRYHMVGRRVLTDELKHGMTLTSMYQNSNIQIHHYPNGIVTVNCARLLKADHHATNGVVHLIDKVISTITNNIQQIIEIEDTFETLRAAVAASGLNTMLEGNGQYTLLAPTNEAFEKIPSETLNRILGDPEALRDLLNNHILKSAMCAEAIVAGLSVETLEGTTLEVGCSGDMLTINGKAIISNKDILATNGVIHYIDELLIPDSAKTLFELAAESDVSTAIDLFRQAGLGNHLSGSERLTLLAPLNSVFKDGTPPIDAHTRNLLRNHIIKDQLASKYLYHGQTLETLGGKKLRVFVYRNSLCIENSCIAAHDKRGRYGTLFTMDRVLTPPMGTVMDVLKGDNRFSMLVAAIQSAGLTETLNREGVYTVFAPTNEAFRALPPRERSRLLGDAKELANILKYHIGDEILVSGGIGALVRLKSLQGDKLEVSLKNNVVSVNKEPVAEPDIMATNGVVHVITNVLQPPANRPQERGDELADSALEIFKQASAFSRASQRSVRLAPVYQKLLERMKH | – | amount of TGFBIp bound, fold against F515-R533 fibrils [1]: ~3 times
– | B1 | – | amount of TGFBIp bound, fold against F515-R533 fibrils [2]: ~1.6 times
binds | A546T FAS1-4 (fourth fasciclin 1 domain of TGFBIp with the A546T substitution) (domain or fragment, human) AGMGTVMDVLKGDNRFSMLVAAIQSAGLTETLNREGVYTVFAPTNETFRALPPRERSRLLGDAKELANILKYHIGDEILVSGGIGALVRLKSLQGDKLEVSLKNNVVSVNKEPVAEPDIMATNGVVHVITNVLQPPANRPQERGDELADSALEIFKQA | – | binding result [3]: binds
binds | FSMLVAAIQSAGLTETLNR (peptide, UniProt Q15582 515-533, looked up) [F515-R533 peptide of TGFBIp] | binds | –
– | B2 | binds | –
